Laboratory results published in paper doi:10.1101/2024.06.16.598887 (bioRxiv, 2024).
Like-named read-outs stand apart in the source and are kept apart here.

Legend:
[1] = target: T1, pig (Sus scrofa) skeletal muscle alpha-actin (pig (Sus scrofa), UniProt P68137 1-377); assay: ITC
[2] = target: T1, pig (Sus scrofa) skeletal muscle …; assay: ITC; remark: listed apart in the source

Kd [1]: 1.6 nM | dH [1]: -14.1 ± 0.1 kcal/mol | Kd [2]: 0.8 nM | dH [2]: -13.6 ± 0.1 kcal/mol | stoichiometry N [2]: ~1
B1: Anopheles gambiae actin depolymerizing factor (natural protein)
chain: MASGVTVSDVCKTTYEEIKKDKKHRYVIFYIRDEKQIDVEVIGDRNAEYDSFLEDIQKGGPGECRYGLFDFEYMHQCQGTSESSKKQKLFLMSWCPDTAKVKKKMLYSSSFDALKKSLVGVQKYIQATDLSEASREAVEEKLRATDRQ
